Data as given in US20240101645A1 (HENRY M JACKSON FOUNDATION FOR THE ADVANCEMENT OF MILITARY …, published 2024).
Positions count from the first letter of the chain named.

T1: HCoV-NL63 spike antigens (bead panel) (HCoV-NL63, UniProt Q6Q1S2 19-1296)
T1 sequence: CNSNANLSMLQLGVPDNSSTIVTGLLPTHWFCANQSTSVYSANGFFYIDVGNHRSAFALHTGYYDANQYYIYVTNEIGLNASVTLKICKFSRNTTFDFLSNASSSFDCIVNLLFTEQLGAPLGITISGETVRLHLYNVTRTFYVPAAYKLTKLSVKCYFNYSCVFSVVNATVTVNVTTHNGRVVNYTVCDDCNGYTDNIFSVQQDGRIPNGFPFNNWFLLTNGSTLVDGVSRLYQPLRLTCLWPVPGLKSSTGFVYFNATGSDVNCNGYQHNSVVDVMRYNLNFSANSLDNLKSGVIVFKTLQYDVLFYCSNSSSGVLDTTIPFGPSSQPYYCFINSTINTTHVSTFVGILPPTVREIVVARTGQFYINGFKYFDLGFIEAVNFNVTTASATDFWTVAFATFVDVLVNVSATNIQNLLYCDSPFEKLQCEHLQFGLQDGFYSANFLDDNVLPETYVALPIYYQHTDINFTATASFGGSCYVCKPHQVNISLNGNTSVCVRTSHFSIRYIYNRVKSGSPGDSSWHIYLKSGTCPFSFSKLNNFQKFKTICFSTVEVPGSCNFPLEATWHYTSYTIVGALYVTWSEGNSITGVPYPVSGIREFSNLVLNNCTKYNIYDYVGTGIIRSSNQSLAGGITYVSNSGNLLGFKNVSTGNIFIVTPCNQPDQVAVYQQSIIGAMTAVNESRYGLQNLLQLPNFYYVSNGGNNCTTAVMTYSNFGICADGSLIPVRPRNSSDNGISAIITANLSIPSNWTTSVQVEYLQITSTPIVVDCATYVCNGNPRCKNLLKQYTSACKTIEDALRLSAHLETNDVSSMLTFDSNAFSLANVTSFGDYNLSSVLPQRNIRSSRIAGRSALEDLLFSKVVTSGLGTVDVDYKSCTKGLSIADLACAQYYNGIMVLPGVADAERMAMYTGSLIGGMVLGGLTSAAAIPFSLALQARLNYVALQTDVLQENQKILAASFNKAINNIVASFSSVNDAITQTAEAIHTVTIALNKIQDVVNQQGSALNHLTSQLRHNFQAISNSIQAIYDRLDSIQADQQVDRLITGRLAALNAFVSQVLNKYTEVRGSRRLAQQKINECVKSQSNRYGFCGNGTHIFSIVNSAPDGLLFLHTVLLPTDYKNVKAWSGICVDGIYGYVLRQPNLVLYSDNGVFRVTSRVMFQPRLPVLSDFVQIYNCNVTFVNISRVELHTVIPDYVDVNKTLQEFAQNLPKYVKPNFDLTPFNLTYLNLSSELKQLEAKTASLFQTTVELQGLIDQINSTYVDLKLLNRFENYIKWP

T2: HCoV-OC43 spike antigens (bead panel) (HCoV-OC43, UniProt P36334 14-1297)
T2 sequence: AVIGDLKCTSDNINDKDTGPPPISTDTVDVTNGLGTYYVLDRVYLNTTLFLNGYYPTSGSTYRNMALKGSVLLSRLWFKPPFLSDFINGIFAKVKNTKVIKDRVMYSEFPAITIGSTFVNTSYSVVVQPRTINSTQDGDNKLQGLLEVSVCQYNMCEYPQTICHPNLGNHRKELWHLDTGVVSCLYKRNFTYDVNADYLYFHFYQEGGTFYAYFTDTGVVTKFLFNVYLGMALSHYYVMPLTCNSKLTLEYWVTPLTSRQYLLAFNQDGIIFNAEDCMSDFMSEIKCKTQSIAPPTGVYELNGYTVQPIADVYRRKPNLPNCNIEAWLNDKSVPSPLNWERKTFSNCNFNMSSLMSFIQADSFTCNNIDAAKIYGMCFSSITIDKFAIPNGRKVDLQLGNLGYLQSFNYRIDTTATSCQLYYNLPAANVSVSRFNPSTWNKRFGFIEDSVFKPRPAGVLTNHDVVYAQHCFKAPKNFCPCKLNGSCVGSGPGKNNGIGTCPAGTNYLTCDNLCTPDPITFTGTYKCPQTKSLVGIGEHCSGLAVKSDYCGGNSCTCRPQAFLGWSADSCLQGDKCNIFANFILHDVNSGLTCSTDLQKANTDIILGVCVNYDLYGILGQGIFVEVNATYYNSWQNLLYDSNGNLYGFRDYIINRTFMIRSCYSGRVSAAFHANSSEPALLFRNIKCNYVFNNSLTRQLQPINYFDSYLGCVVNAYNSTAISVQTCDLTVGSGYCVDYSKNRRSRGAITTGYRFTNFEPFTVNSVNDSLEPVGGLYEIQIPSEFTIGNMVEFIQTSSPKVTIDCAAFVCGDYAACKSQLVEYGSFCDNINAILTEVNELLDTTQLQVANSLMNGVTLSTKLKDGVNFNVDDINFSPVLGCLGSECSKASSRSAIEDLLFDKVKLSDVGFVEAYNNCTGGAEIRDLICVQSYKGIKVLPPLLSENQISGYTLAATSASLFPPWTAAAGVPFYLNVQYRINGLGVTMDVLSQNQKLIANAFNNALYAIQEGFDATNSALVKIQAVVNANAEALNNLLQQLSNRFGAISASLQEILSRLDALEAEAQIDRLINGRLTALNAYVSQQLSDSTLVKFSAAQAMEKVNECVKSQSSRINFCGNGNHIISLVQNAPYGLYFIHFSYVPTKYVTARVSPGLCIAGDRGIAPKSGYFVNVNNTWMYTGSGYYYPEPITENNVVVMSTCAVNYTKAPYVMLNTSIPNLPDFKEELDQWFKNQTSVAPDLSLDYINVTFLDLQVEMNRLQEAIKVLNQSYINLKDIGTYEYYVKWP

B1: COV_3053 (antibody, V domains shown)
VH: EVQLVESGGGLVQPGRSLRLSCTASGFTLGDYAMTWVRQAPGKGLEWLGIIRNKRYGETKQYAASVKGRFTFSRDDSKGIGYLQRLSLKIEDTGVYYCTREHIVRDDAFDVWGQGTTVTVSS
VL: DIVMTQSPDSLAVSLGERATINCKSSQSVLYSSNNKNYIAWYQQRPGQPPKLLIYWTSTRASGVPDRFSGSGSGTDFALTISSLQAEDVAVYYCQQYYTIPRTFGQGTKVEIK
notes: human IgG1
B2: COV_2205 (antibody, V domains shown)
VH: EVQLVESGGGLVKPGGSLRLSCAASGFTFSDYYMIWIRQAPGEGLEWVSYISSRSSYTNYADSVKGRFTISRDNARNSLYLQMNSLRAEDTAVYYCARGQHDLLTGYYSWAYFDYWGQGTLVTVSS
VL: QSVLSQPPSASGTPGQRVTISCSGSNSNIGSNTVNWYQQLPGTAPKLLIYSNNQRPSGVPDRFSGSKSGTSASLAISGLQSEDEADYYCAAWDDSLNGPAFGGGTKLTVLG
notes: human IgG1
B3: COV_2169 (antibody, V domains shown)
VH: EVQLVESGGGVVQPGRSLRLSCAASGFTFSRYAMHWVRQAPGKGLEWVAVISYEGSNKYYADSVKGRFTISRNNSNNTLSLQMNSLRPDDTAVYYCVRSGGHYFDAFDLWGQGTMVTVSS
VL: EIVLTQSPGTLSLSPGERATLSCRASQSVSRNYVAWYQQKPGQAPRLLIYGASSRATGIPDRFSGSGSGTDFTLTISRLEPEDFALYYCQQYGSSYTFGQGTKLEIKR
notes: human IgG1
B4: COV_1177 (antibody, V domains shown)
VH: QVQLVESGGGVVQPGRSLRLSCAASGFTFSSYGMHWVRQAPGKGLEWVAVIWYDGSNKYYADSVKGRFTISRDNSKNTLYLQMNSLRAEDTAVYYCARDPLGAVAGYFDYWGQGTLVTVSS
VL: SYVLTQPPSVSVAPGQTARITCGGNNIGSKSVHWYQQKPGQAPVLVVYDDSDRPSGIPERFSGSNSGNTATLTISRVEAGDEADYYCQVWDSSSDHHWVFGGGTKLTVLG
notes: human IgG1
B5: COV_3129 (antibody, V domains shown)
VH: QVQLQQWGAGLLKPSDTLSLTCAANGGGSFSGYYLGYIRQSPGKGLEWIGEINHNGGTNYNPSLKSRVTISGDTSKNQFSLKLSSVTAADTAIYYCARSRDSSLGDAVWYEYWGQGTLITVSS
VL: EIVLTQSPATLSLSPGERATLSCRASQSVDIYLAWYQQRPGQAPRLLISDASKRATGVPARFSGSGSGTDFTLTINSLEPEDFAIYYCQQRRDWPINFGQGTRLEIKR
notes: human IgG1
B6: COV_1184 (antibody, V domains shown)
VH: QVQLQQWGAGLLKPSETLSLTCAVYGGSFSGYYWSWIRQPPGKGLEWIGEINHSGNTTYNPSLKSRVTISVDTSKNQFSLKLSSVTAADTAVYYCARGLVITYYYDSSGKPFDPWGQGTLVTVSS
VL: not shown
notes: human IgG1
B7: COV_2032 (antibody, V domains shown)
VH: EVQLVESGGGLVQPGGSLRLSCAASGFTFTTYWMHWVRQAPGKGLVWVSRIKTDGSSTNYADSVKGRFTISRDNAKNMLYLQMNSLRAEDTAVYYCAREGPVSIVYFDYWGQGTLVTVSS
VL: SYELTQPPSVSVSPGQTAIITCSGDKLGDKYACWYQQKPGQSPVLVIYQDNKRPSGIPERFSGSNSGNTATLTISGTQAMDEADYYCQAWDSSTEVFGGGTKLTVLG
notes: human IgG1
B8: COV_1145 (antibody, V domains shown)
VH: QVQLVESGGGVVQPGRSLRLSCAASGFTFSSYGMHWVRQAPGKGLEWVAVIWYDGSNKYYADSVKGRFTISRDNSKNTLYLQMNSLRVEDTAVYYCAREGQLGATGLDCWGQGTLVSVSS
VL: SYELTQPPSVSVSPGQTARITCSGDALPKKYAYWYQQKSGQAPVLVIYEDSKRPSGIPERFSGSSSGTMATLTISGAQVEDEADYYCYSTDNSGNHWVFGGGTKLTVLG
notes: human IgG1
B9: COV_2215 (antibody, V domains shown)
VH: EVQLVESGGGLVKPGGSLRLSCAASGFTFSHAWMSWVRQAPGKGLEWVGRIKSKTDGGTADYAAPVKGRFTISRDDSKNTLYLQMNSLKTEDTAVYYCATIRYYYDSSAYLNDAFDIWGQGTMVTVSS
VL: B8 VL with N92S, W97R, G100A
notes: human IgG1
B10: COV_1025 (antibody, V domains shown)
VH: QVQLVESGGGVVQPGRSLRLSCAASGFTFNTYAMHWVRQAPGKGLEWVAIISYDGGNKYYADSMKGRFTISRDNSKNTLYLQMNSLRAEDTAVYYCARARTGNYYYGMDVWGQGTTVTVSS
VL: not shown
notes: human IgG1
B11: COV_1118 (antibody, V domains shown)
VH: EVQLVESGGGLVKPGGSLRLSCAASGFSFSNYNMNWVRQAPGKGLEWVSYISSSSSYIYYADSVKGRFTISRDNAKNSLYLQMNSLRGEDTAVYSCAREASGAYYFDRSGYFDYWGQGTLVTVSP
VL: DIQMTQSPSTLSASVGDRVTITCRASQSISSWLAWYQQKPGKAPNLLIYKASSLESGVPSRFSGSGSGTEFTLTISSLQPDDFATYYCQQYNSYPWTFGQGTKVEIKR
notes: human IgG1
B12: COV_1154 (antibody, V domains shown)
VH: B11 VH with S28R, N31D
VL: DIQMTQSPSTLSASVGDRVTITCRASQSISSWLAWYQQKPGKAPNLLIYKASSLESGVPSRFSGSGSGTEFTLTISSLQPYDFATYYCQQYNSYPWAFGQGTKVEMKR
notes: human IgG1
B13: COV_1136 (antibody, V domains shown)
VH: B11 VH with S28T, N31D, Y32C, Y50S, S54R, G88A
VL: B12 VL with Y81D, S93T, A97T, M106I
notes: human IgG1
B14: COV_3069 (antibody, V domains shown)
VH: EVQLVESGGGLVKPGGSLRLSCAASGFTFGSYTMNWVRQAPGKGLEWVSSIDTTSSSIYYADSLKGRFAISRDSAKNSLYLQMNRLRAEDTAVYYCARGNGHSYDSSGYHYGMYFDYWGQGTLVTVSS
VL: DIQMTQSPSTLSASVGDRVTITCRASQSISRWLAWYQQKPGKAPKLLIYEVSSLENGVPSRFSGSRSGTEFTLTISSLQPDDFAIYYCQQYNTYSRTFGQGTKVEIKR
notes: human IgG1

Legend:
[1] = target: T1, HCoV-NL63 spike antigens (bead panel); experiment: multiplex bead assay
[2] = target: T2, HCoV-OC43 spike antigens (bead panel); experiment: multiplex bead assay

| Binder | binding result [1] | binding result [2] |
| --- | --- | --- |
| B1 | no binding | no binding |
| B2 | no binding | no binding |
| B3 | no binding | no binding |
| B4 | no binding | no binding |
| B5 | no binding | no binding |
| B6 | no binding | no binding |
| B7 | no binding | no binding |
| B8 | no binding | no binding |
| B9 | no binding | no binding |
| B10 | no binding | no binding |
| B11 | no binding | no binding |
| B12 | no binding | no binding |
| B13 | no binding | no binding |
| B14 | no binding | no binding |
